{
  "source": "patent US20150160214A1",
  "about": "“Quantitation of Cellular Adhesion Dynamics Across Immobilized Receptors Under Rheological Shear Flow” (Mayo Foundation for Medical Education and Research, priority 2013, published 2015)",
  "key": {"[1]": {"test_system": "platelet GP1bα", "experiment": "Platelet pause times and translocation velocities on immobilized A1 under shear flow, parallel-plate flow chamber (Example 1)", "type": "cell-based, human", "details": "as a function of shear rate", "source_text": "To understand the effect of the N-terminal peptide on the function of the A1-domain of vWF, the protein was expressed with (A1-1238) and without the N-terminal peptide (A1-1261). The inventor used a flow chamber to measure the dynamics of platelet interactions with A1-1238 and A1-1261. Each domain variant was immobilized on glass slides with a modified Cu^2+ chelating chemistry that enabled surface capture via the N-terminally fused histidine tag. This method ensured reproducible capture of the proteins eliminating possible structural issues associated with nonspecific immobilization on plastic or glass. The slides were completely inert to platelets. Next, 1 mL of citrated whole blood followed by Tris buffered saline was perfused at low shear to enable platelets to attach to the surface immobilized domains. After red cells were perfused away with buffer, the translocation of the remaining attached platelets over the surfaces was recorded at each shear rate and the velocities and pause times calculated from the coordinate data of each platelet on the surface as described in the methods. […] In addition, the translocation velocities were increased for A1-1238 relative to A1-1261. To determine if this N-terminal sequence could inhibit the catch bond when free in solution, the inventor incubated surface immobilized A1-1261 with excess free peptide and added the free peptide to 1 mL of whole blood and to our perfusion buffer and performed the assay.\nDetermination of platelet pause times. Determination of platelet pause times A Glycotech† rectangular parallel-plate flow chamber was mounted to slides with a chelated Cu 21 surface obtained from Microsurfaces Inc. # to which the A1-1261 and A1-1238 domains in TBS were immobilized by the 63His-Tag. Citrated whole blood (1 mL) obtained from informed consent of healthy donors with approval from the Baylor College of Medicine institutional review board followed by buffer was perfused through the chamber at 300s21 for A1-1261 and 700s21 for A1-1238 shear rate to attach platelets to the surface immobilized proteins using a syringe driven variable flow rate pump. The shear was increased incrementally and 1 min movies were recorded at 25 frames/s in phase contrast with 232 pixel binning on a Zeiss Axiocam MRm camera attached to a Zeiss Axio Observer D1 inverted microscope. Tracking analysis was performed using Mediacybernetics ImagePro Premier§. The resulting X-Y coordinate data for each platelet track was differentiated into instantaneous velocities using a Savitzky-Golay algorithm (Savitzky:1964) with a five data point window size and a second-order polynomial implemented into a Mathamatica notebook. These platelet tracks were retained for statistical analysis if the platelet was present for at least 1 s and travelled a total distance greater than 1 lm. Distance travelled in pixels was converted to lm given the camera pixel size=6.45 μm^2, pixel binning, and microscope magnification=400×. Pause times were determined by the amount of time (seconds) a platelets velocity was =0±0.13 μm/s, within the noise. Pause times for all platelet tracks are reported as the mean of the medians. Examples of this analysis for individual platelets and for multiple platelets are provided in the Supporting Information.\nFrame by frame platelet trajectory analysis. Tracking coordinates of individual platelets in units of pixels were exported from ImagePro Premier as a text file and imported into a Mathematica notebook that calculates a Savitzky-Golay first derivative of the total distance traveled over time (Savitzky:1964). The distance was calculated from the X and Y coordinates with the following equation.\nPause times were determined from the length of time the platelet velocity remained within 0±4 pixel/sec=0.129 μm/sec as illustrated in FIG. 8B. Median pause times were calculated from velocity time profiles for all platelet tracks, stored in a list and translated to histograms for multiple platelets. […]"}, "[2]": {"experiment": "Acrylamide quenching of tryptophan fluorescence (Stern-Volmer)", "type": "physicochemical", "experimental": "This was also confirmed via acrylamide induced tryotophan fluorescence quenching performed with an excitation wavelength of 295 nm.\nInitially a quenching determination was performed with disulfide-intact A1 at 20° Celsius and at 1° Celsius in order to distinguish between static and collisional quenching. […] Clear evidence for collisional quenching could be obtained for the A1-domain since the Stern-Volmer constant decreased from 2.6±0.03 to 2.2±0.03 M−1, FIG. 16A, ruling out a static quenching mechanism.\nAcrylamide quenching of tryptophan was performed using an excitation wavelength of 295 nm. After the addition of a certain amount of buffered acrylamide solution the protein solution was equilibrated for ˜5 min and then a fluorescence spectrum between 320 and 400 nm was recorded. Stern-Volmer constants were determined from the fluorescence intensity at 359 nm using the Stern-Volmer equation as described by Lakowicz (Lakowicz:2006)\nwhere KD is the Stern-Volmer quenching constant and KD-1 is the concentration of acrylamide at which F0/F=2 and 50% of the fluorescence intensity is quenched."}},
  "data": [
    {"substance": "A1-1238: Recombinant human vWF A1 domain, amino acids Q1238-P1471, with N-terminal 6×His-Tag, disulfide intact", "values": [
      {"measurement": "Platelet translocation velocities on immobilized domain (comparison)", "setting": "[1]", "value": "increased"},
      {"measurement": "Stern-Volmer constant", "setting": "[2]; 2 M GdnHCl", "value": "6.0 ± 0.1", "unit": "M⁻¹"},
      {"measurement": "Stern-Volmer constant", "setting": "[2]; buffer, 1° Celsius", "value": "2.2 ± 0.03", "unit": "M⁻¹"},
      {"measurement": "Stern-Volmer constant", "setting": "[2]; buffer, 20° Celsius", "value": "2.6 ± 0.03", "unit": "M⁻¹"}
    ]}
  ]
}
